Assay results taken from patent publication US20090143724A1, “Microprojection Array Immunization Patch and Method” (Alza Corporation, priority 2001, published 2009).

Assays:
[1] = OVA delivery into hairless guinea pig skin from dry-coated microprojection arrays (skin biopsy fluorometry); assay type: in vivo; details: for Amount of ovalbumin delivered: 2 cm^2 array applied 5 seconds on HGP skin, n=3, mean ± SEM; for OVA delivered into the skin: 2 cm^2 device coated with 20% OVA solution
From the text: The treatment sites (lateral area of the thorax) of anesthetized HGPs were cleaned with isopropyl alcohol wipes (70%) and allowed to dry. The skin site was lightly stretched manually when the system was applied using an impact applicator. Following application, the stretching tension was released and the system was left on the skin for the specified period of time. For devices left on skin for more than 5 seconds, the HGPs were wrapped with Vetwrap® (3M, St Paul, Minn.) and individually housed.
Each HGP received a dry-coated FITC-OVA microprojection array, which was applied as described above. Following system removal, the treated skin sites were thoroughly washed with 70% isopropyl alcohol to remove any residual OVA on the skin surface. The HGPs were euthanized and 8-mm skin biopsies were taken. Each tissue sample was placed in a scintillation vial with 0.1 mL deionized water. Hyamine hydroxide (0.9 mL, 1 M in methanol, JT Baker, Phillipsburg, N.J.) was then added, and the samples were incubated overnight at 60° C. Thereafter, the dissolved material was further diluted with 2 mL hyamine hydroxide/water (9:1), and fluorescence was quantitated by fluorometry and compared to known standards. Background control samples included untreated skin. A minimum replicate of three was used for each experimental condition.

[2] = system: hairless guinea pigs (HGPs); assay: Immunization of hairless guinea pigs with OVA; anti-OVA IgG titers by ELISA; assay type: in vivo, hairless guinea pig; details: for Increase in antibody titer over non-adjuvant controls: about 1 μg OVA with 15 μg GMDP, one week after booster
Protocol: Baseline blood samples were obtained from all animals before the day of immunization. On the day of immunization, the HGPs were anesthetized and the treatment sites were cleaned with 70% isopropyl alcohol and allowed to dry. For immunizations performed by needle injection, OVA was dissolved in sterile water. Sterile 1-mL syringes with 25-gauge needles (Becton Dickinson, Franklin Lakes, N.J.) were used. ID and SC injections were performed on the dorsal-lateral area of HGPs. The quadriceps muscle of the hind leg was used for IM injection. Microprojection arrays containing dry-coated OVA were applied as described above.
Each HGP received a primary immunization (Day 0) followed by a secondary (i.e., booster) immunization 4 weeks later with an identical article. After primary immunization, HGPs were anesthetized and blood was collected from the anterior vena cava. The serum samples were evaluated by immunoassay for the presence of anti-OVA antibodies.
Sera from nonimmunized and immunized HGPs were tested for the presence of antibodies to OVA by enzyme-linked immunosorbent assay (ELISA). Briefly, 96-well polystyrene plates (Maxisorp, NUNC, Rochester, N.Y.) were coated with 0.1 muwell of OVA (10 μg/mL in 0.2 M Na bicarbonate/carbonate buffer, pH 9.6) and incubated overnight at 4° C. The plates were washed with PBS-Tween buffer then blocked with 200 μL of PBS/casein (0.5%)/Tween-20 (0.05%) buffer for 1 hour at room temperature. Then the plates were again washed and the test sera were added (100 μL/well at 2- to 5-fold serial dilutions, three replicates, 1 hour at room temperature). After washing, 100 μL peroxidase conjugated goat anti-guinea pig IgG antibody (Jackson ImmunoResearch Laboratories, West Grove, Pa.) was added and incubated for 1 hour at room temperature. After incubation, the plates were washed, 100 μL of substrate (ABTS, Becton Dickinson, Franklin Lakes, N.J.) was added, and they were incubated for 35 minutes at room temperature. Absorbance ([…]) was measured using a SpectraMAX 250 (Molecular Devices Corporation, Sunnyvale, Calif.). The results are expressed as endpoint antibody titers relative to nonimmunized control sera samples.
Results are presented as the mean with its associated standard error of the mean. Comparison between groups was performed by analysis of variance (ANOVA).

hairless guinea pigs = assay: Example 2: immunization with tip-coated arrays; anti-ovalbumin IgG titer by ELISA; assay type: in vivo, hairless guinea pig; details: tip-coated array patch, 5 seconds wearing; two and three weeks after primary immunization; six animals
Protocol: Identical microprojection arrays were coated with untagged ovalbumin using a similar methodology. The amount of protein coated on the arrays was evaluated by total protein assay. The target dose of 5 μg of ovalbumin (OVA) was coated with acceptable reproducibility (4.6±0.5 μg) using a 20 wt % OVA coating solution. Immunization studies were conducted with these arrays in one group of six hairless guinea pigs. Systems and system application in animals was the same as described above except that the wearing time in all guinea pigs was 5 seconds. Three additional groups of animals received intradermal injections of 0.1, 1.0, and 10 μg ovalbumin. Blood samples were taken at various time intervals and evaluated for antibody (IgG) titer against ovalbumin by ELISA.

[3] = Example 2: ovalbumin delivery into hairless guinea pig skin from tip-coated arrays; assay type: in vivo; details: for Delivery efficiency: tip-coated arrays
From the text: Some of these microprojection arrays were applied to hairless guinea pigs (three animals per group) for evaluation of ovalbumin delivery into the skin. The skin of the animal flank was stretched manually bilaterally ( ? and ? ) at the time of application of the system. […] The system applied comprised an ovalbumin coated microprojection array, adhered to the center of a low density polyethylene film backing with an acrylate adhesive (7 cm^2 disc). Following application, the stretching tension was released and the system was removed after 5 seconds or 1 hour contact with the skin. Following removal of the system, residual drug was thoroughly washed from the skin and an 8 mm skin biopsy was taken at the location of the application. The total amount of ovalbumin delivered in the skin was determined by dissolving the skin biopsy in hyamine hydroxide (1M in methanol). Quantitation was performed by fluorimetry. […] Delivery efficiency was also found to be relatively independent of the thickness of the coating.

[4] = 1 μg OVA, 1 week after booster immunization

For `CC(=O)NC1C(OC2C(CO)OC(O)C(NC(C)=O)C2OC(C)C(=O)N[C@@H](C)C(=O)N[C@H](CCC(N)=O)C(=O)O)OC(CO)C(O)C1O` (stereo partly drawn) [GMDP, N-acetylglucosamine-(β1-4)-N-acetylmuramyl-L-alanyl-D-glutamine, reference compound], the “Effect of the adjuvant on the amount of OVA delivered” value ([1]; OVA and GMDP dry-coated arrays, data not shown) was “did not significantly affect the amount of OVA delivered”, the “Antibody titers with arrays delivering GMDP and OVA versus OVA alone (dose-sparing)” value ([2]; 1 μg OVA with about 15 μg GMDP by microprojection array) was “approached the titer levels achieved with OVA doses of 20 μg or greater in the absence of GMDP” and the “Increase in antibody titer over non-adjuvant controls” value ([2]; ID administration) was 250%. For the same molecule, the “Increase in antibody titer over non-adjuvant controls” value ([2]; microprojection array administration) was 1300%.

For “ovalbumin [model protein antigen (Grade V, SIGMA); FITC-labeled form used for coating and delivery quantitation]”, the “Antibody level, microprojection array relative to IM injection” value [2, 4] was 50 fold, the “Antibody level, microprojection array relative to SC injection” value [2, 4] was 10 fold and the “Antibody titer, microprojection array relative to IM needle administration” value ([2]; 5 μg OVA, 1 week after booster immunization) was 24 fold. The “Antibody response, microprojection array relative to subcutaneous or intramuscular administration” value ([2]; 1 and 5 μg doses of OVA) was “up to 50 fold”, the “Antibody response, microprojection array versus intradermal administration” value ([2]; 1 and 5 μg doses of OVA) was “equivalent” and the “Antibody titers, microprojection array versus conventional ID, SC or IM injection” value ([2]; 20 or 80 μg OVA, 1 week after booster immunization) was “comparable”. The “Development of anti-ovalbumin IgG antibodies” value (hairless guinea pigs) was “all animals dosed with the microprojection array patch had developed anti-ovalbumin IgG antibodies”.

B1: ovalbumin (protein, UniProt P01012 2-386, looked up)
Ovalbumin: GSIGAASMEFCFDVFKELKVHHANENIFYCPIAIMSALAMVYLGAKDSTRTQINKVVRFDKLPGFGDSIEAQCGTSVNVHSSLRDILNQITKPNDVYSFSLASRLYAEERYPILPEYLQCVKELYRGGLEPINFQTAADQARELINSWVESQTNGIIRNVLQPSSVDSQTAMVLVNAIVFKGLWEKAFKDEDTQAMPFRVTEQESKPVQMMYQIGLFRVASMASEKMKILELPFASGTMSMLVLLPDEVSGLEQLESIINFEKLTEWTSSNVMEERKIKVYLPRMKMEEKYNLTSVLMAMGITDVFSSSANLSGISSAESLKISQAVHAAHAEINEAGREVVGSAEAGVDAASVSEEFRADHPFLFCIKHIATNAVLFFGRCVSP
modifications: FITC label (in one form)
notes: model protein antigen (Grade V, SIGMA); FITC-labeled form used for coating and delivery quantitation
In the case of B1, the “Amount of ovalbumin delivered” value ([1]; 1% coating concentration) is reported as “about 1 μg/cm^2”, the “Amount of ovalbumin delivered” value ([1]; 1% coating concentration, listed as Ovalbumin) is reported as 0.9 ± 0.1 μg/cm^2 and the “OVA delivered into the skin” value ([1]; 30 minute application) is reported as 50 µg. For the same molecule, the “OVA delivered into the skin” value ([1]; 1 hour application) was “approximately 80 μg”, the “Amount of ovalbumin delivered” value ([1]; 5% coating concentration) was ~6 μg/cm^2 and the “Amount of ovalbumin delivered” value ([1]; 5% coating concentration, listed as Ovalbumin) was 5.8 ± 1.4 μg/cm^2. The “Amount of ovalbumin delivered” value ([1]; 20% coating concentration) was ~10 μg/cm^2, the “Amount of ovalbumin delivered” value ([1]; 20% coating concentration, listed as Ovalbumin) was 9.9 ± 0.6 μg/cm^2 and the Approximate dose delivered ([1]; Delivery condition I: 1% coating, wearing time 5 seconds, surface area 1 cm^2) was ~1 µg. For the same molecule, the Approximate dose delivered ([1]; Delivery condition II: 5% coating, wearing time 5 seconds, surface area 1 cm^2) was ~5 µg, the Approximate dose delivered ([1]; Delivery condition III: 20% coating, wearing time 5 seconds, surface area 2 cm^2) was ~20 µg and the Approximate dose delivered ([1]; Delivery condition IV: 20% coating, wearing time 3600 seconds, surface area 2 cm^2) was ~80 µg. For the same molecule, the “OVA delivered from arrays dry-coated with OVA and GMDP” value ([1]; array coated from OVA (1%) and GMDP (10%)) was “approximately 1 μg”, the “Seroconversion after primary immunization” value ([2]; 20 or 80 μg OVA by microprojection array, 2 weeks after primary immunization) was “seroconverted by 2 weeks after the primary immunization” and the “Seroconversion after booster immunization” value ([2]; OVA by microprojection array, all doses tested (1, 5, 20, 80 μg)) was “All animals had seroconverted”. The “OVA delivered into hairless guinea pig skin” value ([3]; tip-coated 2 cm^2 arrays, 5 second or 1 hour wearing) was “up to 4.5 μg”, the Delivery efficiency ([3]; 5 second wearing time) was “higher than 55%” and the Delivery efficiency ([3]; 1 hour wearing time) was > 85%.
